Assay results from publication PMC5493677, “The role of the FliD C-terminal domain in pentamer formation and interaction with FliT” (Scientific Reports, 2017).

B1: StFliD_(1–467), full-length FliD from Salmonella Typhimurium, wild type (natural protein)
chain: MASISSLGVGSNLPLDQLLTDLTKNEKGRLTPITKQQSANSAKLTAYGTLKSALEKFQTANTALNKADLFKSTVASSTTEDLKVSTTAGAAAGTYKINVTQLAAAQSLATKTTFATTKEQLGDTSVTSRTIKIEQPGRKEPLEIKLDKGDTSMEAIRDAINDADSGIAASIVKVKENEFQLVLTANSGTDNTMKITVEGDTKLNDLLAYDSTTNTGNMQELVKAENAKLNVNGIDIERQSNTVTDAPQGITLTLTKKVTDATVTVTKDDTKAKEAIKSWVDAYNSLVDTFSSLTKYTAVEPGEEASDKNGALLGDSVVRTIQTGIRAQFANSGSNSAFKTMAEIGITQDGTSGKLKIDDDKLTKVLKDNTAAARELLVGDGKETGITTKIATEVKSYLADDGIIDNAQDNVNATLKSLTKQYLSVSNSIDETVARYKAQFTQLDTMMSKLNNTSSYLTQQFTAMNKS
notes: FliD (HAP2, flagellar filament capping protein) of Salmonella Typhimurium, residues 1–467; also called StFliD WT; HAP2; source: E. coli BL21(DE3); co-expressed with StFliT 1–94 and co-purified (glutathione-Sepharose, TEV, Hitrap Q, Superdex 200) for the complex
B3: StFliT_(1–94), C-terminus-truncated FliT from Salmonella Typhimurium (domain or fragment)
chain: MTSTVEFINRWQRIALLSQSLLELAQRGEWDLLLQQEVSYLQSIETVMEKQTPPGITRSIQDMVAGYIKQTLDNEQLLKGLLQQRLDELSSLIG
notes: FliT (flagellar export chaperone) of Salmonella Typhimurium, residues 1–94; At the glutathione-Sepharose step of the co-purification the GST tag was still on; it was cut by TEV protease before ion exchange and gel filtration; source: E. coli BL21(DE3); purified alone (glutathione-Sepharose, TEV cleavage, gel filtration) for ITC; co-expressed with StFliD constructs and co-purified for the …

How the values were obtained:
[1] = molecular target: B3; experiment: SEC-MALS; samples at 100 μM (Fig. 2c); Superdex 200 10/300 GL in buffer A (20 mM Tris-HCl pH 8.0, 200 mM NaCl), 0.4 mL/min; details: both partners purified
[2] = molecular target: B3; experiment: SEC-MALS; samples at 10 μM (Fig. 2c); Superdex 200 10/300 GL in buffer A (20 mM Tris-HCl pH 8.0, 200 mM NaCl), 0.4 mL/min; details: both partners purified
[3] = molecular target: B3; experiment: SEC-MALS; co-purified complexes (Fig. 1b), concentration not given; Superdex 200 10/300 GL in buffer A (20 mM Tris-HCl pH 8.0, 200 mM NaCl), 0.4 mL/min; details: both partners purified
[4] = molecular target: T1, StFliD_(1–467) L443R mutant (Salmonella Typhimurium, UniProt P16328 1-467, L443R); experiment: ITC; 170 μM StFliT 1–94 injected (2.5 μL, every 200 s) into 26 μM StFliD in the cell; 298 K; buffer A (20 mM Tris-HCl pH 8.0, 200 mM NaCl); details: both partners purified
T1 construct: FliD of Salmonella Typhimurium, residues 1–467, with L443R; Monomer by SEC-MALS; also called StFliD L443R; FliD (L443R)
T1 sequence: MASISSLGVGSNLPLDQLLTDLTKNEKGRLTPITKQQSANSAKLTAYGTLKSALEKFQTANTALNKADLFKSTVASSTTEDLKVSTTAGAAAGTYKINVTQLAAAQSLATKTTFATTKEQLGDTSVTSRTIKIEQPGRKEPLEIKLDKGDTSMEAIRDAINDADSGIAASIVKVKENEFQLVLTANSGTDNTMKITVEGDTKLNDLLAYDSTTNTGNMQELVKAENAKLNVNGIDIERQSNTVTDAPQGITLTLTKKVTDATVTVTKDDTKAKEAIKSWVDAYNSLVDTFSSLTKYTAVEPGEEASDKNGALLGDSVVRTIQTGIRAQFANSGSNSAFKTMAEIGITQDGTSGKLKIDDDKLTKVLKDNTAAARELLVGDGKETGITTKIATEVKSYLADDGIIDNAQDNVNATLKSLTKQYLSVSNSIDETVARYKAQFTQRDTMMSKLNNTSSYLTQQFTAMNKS

[5] = molecular target: B1; experiment: as above; details: both partners purified
[6] = molecular target: the molecule itself; experiment: SEC-MALS; samples at 100 μM (Fig. 2c); Superdex 200 10/300 GL in buffer A (20 mM Tris-HCl pH 8.0, 200 mM NaCl), 0.4 mL/min
[7] = molecular target: the molecule itself; experiment: SAXS; purified proteins and co-purified complexes, 1.0–10.0 mg/mL, 4 °C; ab initio envelopes (DAMMIF)

## B1
[1]
  stoichiometry N: 1 StFliD per StFliT (2:2)
[2]
  stoichiometry N: 1 StFliD per StFliT

B2: StFliD_(401–467) (domain or fragment)
chain: DGIIDNAQDNVNATLKSLTKQYLSVSNSIDETVARYKAQFTQLDTMMSKLNNTSSYLTQQFTAMNKS
notes: FliD of Salmonella Typhimurium, residues 401–467; The eluate was cleaved by TEV protease; also called C-terminal helix of StFliD; source: E. coli BL21(DE3), co-expressed with StFliT 1–94, co-purified (glutathione-Sepharose, TEV, Hitrap Q, Superdex 200)
[3]
  stoichiometry N: 1 StFliD per StFliT

## B3
[4]
  Kd: 3.01 ± 0.1 µM
[5]
  Kd: 235.1 ± 0.8 nM

B4: StFliD_(1–300) (domain or fragment)
chain: MASISSLGVGSNLPLDQLLTDLTKNEKGRLTPITKQQSANSAKLTAYGTLKSALEKFQTANTALNKADLFKSTVASSTTEDLKVSTTAGAAAGTYKINVTQLAAAQSLATKTTFATTKEQLGDTSVTSRTIKIEQPGRKEPLEIKLDKGDTSMEAIRDAINDADSGIAASIVKVKENEFQLVLTANSGTDNTMKITVEGDTKLNDLLAYDSTTNTGNMQELVKAENAKLNVNGIDIERQSNTVTDAPQGITLTLTKKVTDATVTVTKDDTKAKEAIKSWVDAYNSLVDTFSSLTKYTAVE
notes: FliD of Salmonella Typhimurium, residues 1–300; Dimer at 100 μM by SEC-MALS; source: cloned into pRSF-duet
[6]
  stoichiometry N: 2

B5: StFliD_(45–467) (domain or fragment)
chain: TAYGTLKSALEKFQTANTALNKADLFKSTVASSTTEDLKVSTTAGAAAGTYKINVTQLAAAQSLATKTTFATTKEQLGDTSVTSRTIKIEQPGRKEPLEIKLDKGDTSMEAIRDAINDADSGIAASIVKVKENEFQLVLTANSGTDNTMKITVEGDTKLNDLLAYDSTTNTGNMQELVKAENAKLNVNGIDIERQSNTVTDAPQGITLTLTKKVTDATVTVTKDDTKAKEAIKSWVDAYNSLVDTFSSLTKYTAVEPGEEASDKNGALLGDSVVRTIQTGIRAQFANSGSNSAFKTMAEIGITQDGTSGKLKIDDDKLTKVLKDNTAAARELLVGDGKETGITTKIATEVKSYLADDGIIDNAQDNVNATLKSLTKQYLSVSNSIDETVARYKAQFTQLDTMMSKLNNTSSYLTQQFTAMNKS
notes: FliD of Salmonella Typhimurium, residues 45–467
[7]
  binding result: binds
